The text below walks through data of patent US20040248807A1.

pKd, pKi: −log10 of the molar value.

Assay [1] deals with Human α-thrombin (human) (UniProt P00734). Put plainly: fluorescence polarization competition against 2 nM fluoresceinated γ′408-427 phosphorylated peptide, 2 µM α-thrombin.
The target of assay [2] is Human γ-thrombin (human) (UniProt P00734). Nature of the assay: fluorescence polarization, fluoresceinated peptide titrated with γ-thrombin.
In assay [3] the target is Human α-thrombin (human) (UniProt P00734). Put plainly: fluorescence polarization, 2 nM fluoresceinated peptide titrated with α-thrombin. On the technique in general: Polarisation of emitted light reports the rotation of a fluorescent probe.

fluoresceinated γ′408-427 peptide, …-Y(PO3)-DSL-Y(PO3)-PEDDL, sequence (P02679 434-453): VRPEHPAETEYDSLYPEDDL

One may read the pKi as the Ki on a negative log10 scale, so that one unit is a factor of ten. In assay [1], “γ′408-427 peptide, doubly phosphorylated, unlabeled, …-Y(PO3)-DSL-Y(PO3)-PEDDL” gave a pKi of 6.28.
A word on the pKd: it is the negative decadic logarithm of the Kd, by convention in mol/L. High values mean a low Kd, low ones a high Kd. On to “fluoresceinated γ′408-427 peptide, …-Y(PO3)-DSL-Y(PO3)-PEDDL”, for which the pKd in assay [2] was 6.21; in assay [3], 6.37.
